The values that follow come from patent US20230287372.

Holding throughout (experiment): cell_activity
The test system of one data set is SeqID63 (WO2019/030695). The note with it: PAM TTTA.
The test system of the next data set is SuCms1. As to conditions: PAM TTTA.
Data set [1] has as its system T1, BEC10 (Artificial (engineered chimeric Cms1-like CRISPR nuclease)).
T1 sequence: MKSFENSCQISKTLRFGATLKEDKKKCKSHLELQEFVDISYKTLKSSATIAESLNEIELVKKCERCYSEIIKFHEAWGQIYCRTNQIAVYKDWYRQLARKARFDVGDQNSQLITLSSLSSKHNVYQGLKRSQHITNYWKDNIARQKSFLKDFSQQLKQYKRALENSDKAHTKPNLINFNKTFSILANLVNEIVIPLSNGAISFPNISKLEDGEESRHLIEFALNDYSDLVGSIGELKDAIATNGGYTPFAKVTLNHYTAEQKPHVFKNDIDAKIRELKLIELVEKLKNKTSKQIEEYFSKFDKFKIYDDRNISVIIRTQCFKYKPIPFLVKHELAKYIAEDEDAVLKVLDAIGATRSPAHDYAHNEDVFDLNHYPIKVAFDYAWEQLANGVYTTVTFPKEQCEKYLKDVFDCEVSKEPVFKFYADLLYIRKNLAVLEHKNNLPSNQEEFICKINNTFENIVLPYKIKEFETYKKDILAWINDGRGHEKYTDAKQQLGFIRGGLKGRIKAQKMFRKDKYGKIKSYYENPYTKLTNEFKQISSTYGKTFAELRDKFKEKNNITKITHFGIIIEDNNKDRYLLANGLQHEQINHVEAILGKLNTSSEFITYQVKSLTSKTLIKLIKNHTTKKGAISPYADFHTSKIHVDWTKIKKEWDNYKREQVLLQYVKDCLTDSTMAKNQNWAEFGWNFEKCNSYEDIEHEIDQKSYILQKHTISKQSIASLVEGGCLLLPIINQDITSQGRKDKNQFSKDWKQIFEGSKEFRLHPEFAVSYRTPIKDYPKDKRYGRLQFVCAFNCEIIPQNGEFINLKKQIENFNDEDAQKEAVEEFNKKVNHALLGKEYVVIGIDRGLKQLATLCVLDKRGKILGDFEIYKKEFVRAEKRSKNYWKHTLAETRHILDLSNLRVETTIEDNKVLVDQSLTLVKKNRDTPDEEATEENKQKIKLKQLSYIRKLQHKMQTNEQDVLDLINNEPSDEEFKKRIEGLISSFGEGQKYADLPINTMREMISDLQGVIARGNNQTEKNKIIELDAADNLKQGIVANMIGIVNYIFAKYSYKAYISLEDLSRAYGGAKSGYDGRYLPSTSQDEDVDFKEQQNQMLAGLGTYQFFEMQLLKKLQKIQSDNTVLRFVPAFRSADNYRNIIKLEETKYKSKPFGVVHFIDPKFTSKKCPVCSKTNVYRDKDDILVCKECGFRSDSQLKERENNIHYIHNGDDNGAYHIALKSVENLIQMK
As to conditions: no-spacer negative control; 30 C.

Data set [2] deals with T2, BEC67 (Artificial (engineered chimeric Cms1-like CRISPR nuclease)).
T2 sequence: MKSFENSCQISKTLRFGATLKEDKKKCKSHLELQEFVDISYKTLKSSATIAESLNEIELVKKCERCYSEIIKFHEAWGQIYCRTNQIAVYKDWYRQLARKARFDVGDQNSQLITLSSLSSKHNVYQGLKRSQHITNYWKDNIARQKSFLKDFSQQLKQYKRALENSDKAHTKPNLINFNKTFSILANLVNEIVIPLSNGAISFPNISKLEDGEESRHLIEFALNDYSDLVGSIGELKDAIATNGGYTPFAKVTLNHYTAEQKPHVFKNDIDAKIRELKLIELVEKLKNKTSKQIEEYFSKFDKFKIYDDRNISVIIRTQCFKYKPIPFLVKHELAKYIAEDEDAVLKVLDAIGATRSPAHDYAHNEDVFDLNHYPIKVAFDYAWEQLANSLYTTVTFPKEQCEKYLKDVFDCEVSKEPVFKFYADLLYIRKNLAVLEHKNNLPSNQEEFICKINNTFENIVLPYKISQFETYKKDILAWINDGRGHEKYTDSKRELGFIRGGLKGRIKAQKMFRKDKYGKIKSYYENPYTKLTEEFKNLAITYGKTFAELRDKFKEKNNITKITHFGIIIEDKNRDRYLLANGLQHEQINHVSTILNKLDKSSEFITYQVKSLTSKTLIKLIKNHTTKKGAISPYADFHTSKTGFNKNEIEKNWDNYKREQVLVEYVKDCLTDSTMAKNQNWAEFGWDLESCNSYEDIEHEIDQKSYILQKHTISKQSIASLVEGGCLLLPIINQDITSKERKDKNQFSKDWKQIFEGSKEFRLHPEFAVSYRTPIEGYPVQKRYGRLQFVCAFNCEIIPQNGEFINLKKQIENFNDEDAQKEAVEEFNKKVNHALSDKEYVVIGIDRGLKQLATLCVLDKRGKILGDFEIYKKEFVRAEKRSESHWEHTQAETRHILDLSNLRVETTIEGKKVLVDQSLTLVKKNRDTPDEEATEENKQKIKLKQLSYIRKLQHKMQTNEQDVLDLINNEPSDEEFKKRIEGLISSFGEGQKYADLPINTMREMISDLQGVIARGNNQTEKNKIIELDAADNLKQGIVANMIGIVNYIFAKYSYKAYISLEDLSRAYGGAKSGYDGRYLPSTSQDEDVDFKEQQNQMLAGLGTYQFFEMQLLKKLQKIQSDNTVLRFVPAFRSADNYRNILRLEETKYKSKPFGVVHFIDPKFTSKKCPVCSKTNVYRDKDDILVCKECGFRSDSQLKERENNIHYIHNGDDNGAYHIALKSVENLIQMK
As to conditions: no-spacer negative control; 30 C.

Data set [3] has as its system T3, BEC85 (Artificial (engineered chimeric Cms1-like CRISPR nuclease)).
T3 sequence: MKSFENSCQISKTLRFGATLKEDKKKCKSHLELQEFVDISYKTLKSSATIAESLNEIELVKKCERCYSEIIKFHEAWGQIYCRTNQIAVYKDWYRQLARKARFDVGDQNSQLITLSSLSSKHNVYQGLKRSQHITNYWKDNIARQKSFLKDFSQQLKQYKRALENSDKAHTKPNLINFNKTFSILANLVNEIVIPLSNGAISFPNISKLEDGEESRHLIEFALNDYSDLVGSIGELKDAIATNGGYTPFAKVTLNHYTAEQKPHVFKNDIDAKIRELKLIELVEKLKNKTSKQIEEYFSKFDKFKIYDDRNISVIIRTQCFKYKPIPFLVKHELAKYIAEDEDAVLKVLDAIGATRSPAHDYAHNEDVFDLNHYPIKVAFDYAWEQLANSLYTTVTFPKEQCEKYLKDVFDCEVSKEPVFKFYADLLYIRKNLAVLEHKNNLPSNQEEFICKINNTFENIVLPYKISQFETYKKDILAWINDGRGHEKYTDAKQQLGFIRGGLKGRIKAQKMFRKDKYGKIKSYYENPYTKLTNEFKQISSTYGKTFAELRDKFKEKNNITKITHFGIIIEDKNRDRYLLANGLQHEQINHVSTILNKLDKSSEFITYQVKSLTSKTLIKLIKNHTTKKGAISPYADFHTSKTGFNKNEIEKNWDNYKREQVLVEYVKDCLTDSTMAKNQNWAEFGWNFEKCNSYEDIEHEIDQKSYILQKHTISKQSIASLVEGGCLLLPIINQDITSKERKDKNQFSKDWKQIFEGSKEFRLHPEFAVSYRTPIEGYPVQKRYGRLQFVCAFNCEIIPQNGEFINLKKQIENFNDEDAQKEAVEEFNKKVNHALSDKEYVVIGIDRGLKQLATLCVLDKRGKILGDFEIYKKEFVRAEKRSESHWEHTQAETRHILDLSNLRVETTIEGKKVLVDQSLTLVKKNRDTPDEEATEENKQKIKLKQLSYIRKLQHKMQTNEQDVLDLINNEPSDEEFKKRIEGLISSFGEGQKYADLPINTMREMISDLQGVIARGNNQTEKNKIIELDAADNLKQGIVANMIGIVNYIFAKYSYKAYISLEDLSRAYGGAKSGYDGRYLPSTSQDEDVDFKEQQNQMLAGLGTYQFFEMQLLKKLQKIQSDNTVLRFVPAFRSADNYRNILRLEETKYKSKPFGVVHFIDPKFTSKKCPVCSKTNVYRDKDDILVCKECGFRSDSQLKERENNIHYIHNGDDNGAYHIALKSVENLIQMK
As to conditions: no-spacer negative control; 30 C.

In the case of “Ade2 gRNA for Cms1 comparators ; Ade2 target”, the activity (% editing efficiency) is 0.2 in the data set with SeqID63 (WO2019/030695) (S. cerevisiae 21 C); 0.2 with SeqID63 (WO2019/030695) (S. cerevisiae 30 C, comparable to negative control); 0.3 in the data set on SuCms1 (S. cerevisiae 21 C, near negative control); 5 in the data set on SuCms1 (S. cerevisiae 30 C, 3% fully edited).
Take “gRNA cassette without spacer ; Ade2 target”: the activity (% editing efficiency) in data set [1], in data set [2] and in data set [3] was 0.2 in each case.
“rpoB gRNA for Cms1 comparators ; rpoB target”: the activity (% colony reduction) stood at 0 with SeqID63 (WO2019/030695) (E. coli depletion assay 37 C) and 72 with SuCms1 (E. coli depletion assay 37 C).
